Test results taken from the nanobody polyreactivity screen of Harvey et al. (2022).

Assay: yeast display, Sf9 membrane polyspecificity reagent, FACS + sequencing; frameworks hold sequencing errors
Outline: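 Synthetic nanobody libraries on Saccharomyces cerevisiae BJ5465 were galactose-induced for 36–48 hours, stained 1 hour at 4 °C with 10% biotinylated, detergent-solubilized Sf9 membrane reagent and enriched on streptavidin microbeads. FACS then separated cells into low and high (top ~1%) gates by anti-HA (expression) and streptavidin (reagent binding) fluorescence. Genes were colony-PCR amplified, MiSeq 2 × 250 sequenced and CDR-length filtered. A clone's polyreactivity label is that of its gate of origin.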

Sequence | polyreactivity (PSR sort gate)
HLQLVESGGGLVQAGGSLRLSCAASGSILNFYAMGWYRQAPGTERELVAAISSSGGSTYYADSVKGRFTISRDNAKNTVYLQMNILQPEDTAVYYCNADYSPSSDSEYGYWGQGTQVTVSS | low polyreactivity
HLQLVESGGVLVQAGGSLRLSCASSGSTFRSNVMGWYRQAPGKAREFVAAITSSSATTYYADSVKGRFTISRDNAKNTVYLLINSLKPEDTAVYYCAAGGRKAGPAGGQYYYWGQGTQVTVSS | low polyreactivity
HLQLVETVGGLDQAGGSLRLSFAASGITSYGYAKGGYSEAAANESELVASISWTGGNTYADSLKGRFTISRDNAKNSVYLQMNSLKPEDSAVYYSNAGRSWDFLYCYEYWGQGTQVTVSS | low polyreactivity
HSAVGLVQAGVRHPLSCAASGRMFKYNAMRWYRQAPGKERELVAAISYSGGSTYYADSVKGRFTISRDNEMYTVYLQMNSLKPEDTAVYYCAKATSTREPKYGYWGQGTHVTVSS | high polyreactivity
HVELVQSCGGLVQAGGSLRLSSAASGRIFSPYVMGWFRQAPGKVRQLVAASRNRGGSTYYAAAVKWRFTISRDNATNTVYIQMNSLKPEDTAVYYCNAPDVSRPLRGRYDYWGQGTQVTVSS | high polyreactivity
HVQHVDSGAGLVQAGGSLRLSCAASGRTFVGYAMGWYRQAPGKEREFVADITYDSGSTYYADSVKGRFTISRDNAKNTVYLQMNSLKPEDTAVYYCNAKYYYWWYDVDYWGQGTQVTVSS | high polyreactivity
HVQHVDSGGGLVQAGGSLRLSFAAYGRIFVNNAMGWYRQATGKERELVAAISQNGGRTYYADSVKGRFTISRDNAKNTVYLQMNSLKPEDTAVYYCAAGQARAGLIGGYWGQGTQVTVSS | high polyreactivity
HVQIVESGGGLVQAGGSLRLSCADSGSTFLGYDMGWFRQAPGKVRELVATISKSGGSTHYADSVKGRFTISRDNAKNTVSLQMNSLKPEETAVYYCAADYYPRYYKNTGEYDYWGQGTQVTVSS | low polyreactivity
HVQLQERGGGLVQAGGSLRPSCAARGTISDGVPMGWYRQAPGEERELVATTVLGATTNYADSVKGRFTISRGNAKNTVYLQMNSLNPEETAVYYCAAPLRYDKGFSYWGQGTQVTVSS | low polyreactivity
HVQLQESGGGLVQAGGDLRLSCAASGNIFRDYIMGWYRQAPGKEREFVAGIDRGANTNYADSVKGRFTISRDNAKNTVYLQMNSLIPEDTAVYYCAVHTAIVPDFIYWGQGTQVTVSS | low polyreactivity
HVQLQESGGGLVQAGGSLRLSCAASGNISYSRNMGWYRQAPGKERELVAAIDRGAITYYADSVQGRFTISRDNAKNTVYLQIYSLKPEDTAVYYCAAEYHDRWDHLYWGQGTQVTVSS | high polyreactivity
HVQLQESGGGLVQAGGSLRLSCAASGSNFRWSPMGWYRLAPGKEREFVAGINRGGITNYADSVKGRFTSSRDNAKNTVYLQMNSLKPEDTALYYCAAIAYPDLPTYFDYDSDYFYRGQGTQVTVSS | low polyreactivity
HVQLQESGGVLVQAGGSLRLSCAASGSIFQATYMGWYRQAPGKEREFVASITYGSITNYADSVKGRFTIGRDNAKDTLYLQMNSLKPEDTAVYYCADDRHYIPAFHYWGQGTQVTVSS | low polyreactivity
HVQLQETGGGLVQAGGCLSCTASGTIFGQGDMGWYRPAPGKERELVATINDGASTYYADSVKGRFTISRDKAKNTVYLQKNSLKPDDTAVNYCAVFTDITTYFGYWGQGTQVTVSS | low polyreactivity
HVQLVDSGGGLVQAGGSLRLSCAASGFIFRRYAMGWYRQAPGKERELVAAIRSDGSTNYADSVKGRFTISRDNAKNTVYLQLNSLKPEDTAVYYCAATYYSYTWFSQYYYWGQGTQVTVSS | high polyreactivity
HVQLVESAGGLVQAGGSLRLSCAASGRIFAVYAMGWYRQAPGKERELVAAISYIGGSTYYADSVKGRFTISRDNAKNTVYLQMNSLKPEDTAVYYCNKDIPKRQYVVYRTAYEYDYWGQGTQVSVSS | low polyreactivity
HVQLVESAGGLVQEGGSLRVSCAASGFTFSFYAMGGYRQAPGKERELVAAISWNSGSTYYADSVKGRFTISRDNAKNTVYLQMNSLKPADTAVYYCAADVQRYRGITYYYWGQGTPVTVSS | high polyreactivity
HVQLVESGGGFVQAGGSLRLSCAASGITFVKYTMGWYRQAPGKERELVAASSRSDGRTYYADSVKGRFTISRDNAKNSVYLQMNSLKPEDTAVYYCNAVYGVIGKGYNYWGQGTQVTVSS | high polyreactivity
HVQLVESGGGIVQAGGSLRLSCAASGLIFSYYAMGWYRQAPGKERELVAAINSGGSTYYADSVKGRFTISRDNAKNTVYLQMNSLKPEDSAVYYCAAHLWYHGHLFDYWGQGTQVTVSS | high polyreactivity
HVQLVESGGGIVQAGGSLRLSCAASGLIVINYAMGRYRQARGKERELVATIRYCGGSTNYADSVKGRFTISRDNAKNTVYLQMNSLKPEDNAVYYCNAGYYPTGYDYWGQGTQVTVSS | low polyreactivity
HVQLVESGGGLVHAGGSLRLSCAASGAIFWVNAMGWYREAPGKERELVADISRSGANTYYADSVKGRFTISRDNAKNTVYLQMTSLNPEDTAVYYCAKGVFYPWWYVQPEHDYWGQGTQVTVSS | high polyreactivity
HVQLVESGGGLVQAGGSLPLSCAASGRTFDHYAMGWYRQAPGKEREFVAAITSGGSTYYADSVKGRFRISRDNAKNTVYLQMNSLKPVDTAVYYCNNDSSFWGYYIAQVNERDYWGQGTQVTVSS | low polyreactivity

Sequence | polyreactivity (PSR sort gate)
HVQLVESGGGLVQAGGSLRLICAASGFIFRFNAMGWYRQAPGKERELVAAISGSGGITYYADSVKGRFTISRDNAKNTVYLQMNSLKPEDTAVYYCAARPLFGWRGYNYWGQGTQVTVSS | high polyreactivity
HVQLVESGGGLVQAGGSLRLRCAASGITFAEYTMGWYRQAPGKERELVAAISRRGGSTYYADSVKGRLTISRDNAKNTVYLQMNSLKPEDTAVYYCNALFRYSRDYWGQGTQVTVSS | high polyreactivity
HVQLVESGGGLVQAGGSLRLSCAACGSTFRRYTMGWYIQAPGKDRELVAAITWSGGSTYYADSVKGRFTISRDNAKNTVYLQMNSLKPEDTAVYYCAADRPYHTREYYYWGQGSQVTVSS | low polyreactivity
HVQLVESGGGLVQAGGSLRLSCAASGFIIADNAMGWDRQAPGKERELVAAISSSGGSTYYADSVKARFTISRDNAKNTVYLQMNSLKPVDTAVYYCAARTYHPRYVRPTFYYWGQGTQVTVSS | low polyreactivity
HVQLVESGGGLVQAGGSLRLSCAASGFISVRNGMGWYRQAPGKERELVAAITGSGGSTYYADSVKGRFTISRDNAKNTVYLQMNSLKPEDTAVYYCARTYTVSRKRMGYWGQGTQVTVSS | high polyreactivity
HVQLVESGGGLVQAGGSLRLSCAASGGIFFDNAMGWYRQGPGKERELVAAIRGDSGSTYYADSVKGRFTISRDNAKNTVYLQMNSLKPEDTAVYYCAAALRDYYPGGEYYSQYEYWGQGTQVTVSS | low polyreactivity
HVQLVESGGGLVQAGGSLRLSCAASGITFASYGMGWYRPAPGKDRELVAAISQRGGRTYYADSVKGRFTISRDNAKNTVYLQMNSLKPEDTAVYYCARTVGYRTLLESDSWGQGTQVTVAS | high polyreactivity
HVQLVESGGGLVQAGGSLRLSCAASGITLVRYAMGWFRPAPGKERELVAAISSSGGSTYYADSVKGRFTISRDNAKNTVYLQMNSLQPEDTAVYYCNAYVHSRRVEFNYWGQGTQVTVSS | high polyreactivity
HVQLVESGGGLVQAGGSLRLSCAASGRIFLIYAMGWYRQAPGKEWELFAAIRSGGSTNYADSVKGRFTISRDNAKNTVYLLMNSLNPEDTAVYYCAVRSRVYPSRVKYDYWGQGTQVTVSS | high polyreactivity
HVQLVESGGGLVQAGGSLRLSCAASGRIFWYYTMGWSRQAPGKERELVASINSDSGTYYADSVKGRFTISRDNAKNTVYLQMNRLKPEDTAVYYCTRDSESDANTFTTSGIDEPYDYWGQGTQVTVSS | low polyreactivity
HVQLVESGGGLVQAGGSLRLSCAASGRIFYIYAMGWYRQAPGKERELVAGIRSRGGSTYYADSVKGRFTISRDNAKNTVYLQMNSLKPEDTAVYYCTTEIWGVNSSGYDYWGQGTQVTVSS | low polyreactivity
HVQLVESGGGLVQAGGSLRLSCAASGRILYGNAMGWYRKAPGKDRELVAAISWRADSTYYADSVKGRFTISRDNAKNTVYLQMNSLKPEDTAVYYCAADGNYRRHYWGQGTQVTVSS | high polyreactivity
HVQLVESGGGLVQAGGSLRLSCAASGRTFFRYVMGWYRQAPGKERELVAAISRSGGSTYYADSVKGRFTISRDNAKNTFYLQMNSLKPEDTAVYYCAASAGPRASYYYWGQGTQVTVSS | high polyreactivity
HVQLVESGGGLVQAGGSLRLSCAASGRTFYRYAKGWYRQAPGKEREFVAAISRSGGSTYYAVSVKGRFTISRDNAKNTVYLQMNSLKPEDTAVFYSNKYYWYPYGRAHDYGYWGQGTQVTVSS | high polyreactivity
HVQLVESGGGLVQAGGSLRLSCAASGSIFADNAMGWYRQAPGNERELVAAISRTGGSTYYADSVKGRFTISRDNAKNTVYLQMNSLKPEDTAVYYCAADNGYGRYRRYYYWGQGTQVTVSS | high polyreactivity
HVQLVESGGGLVQAGGSLRLSCAASGSIFVPNAMGWYRQALGKERELVAAITYSGGDTYYADSVKGRVTISRDNAMNTVYLQMNSLKPEDTAVYYCAADNGRVGYDYWGQGTQVTVSS | low polyreactivity
HVQLVESGGGLVQAGGSLRLSCAASGSIYHIYSMGRYRQAPGKERELVAAISFSGGSTYYADSVKGRFTISRDNAKNTVYLQMNSLKPEDNAVYYCAADVYWLPYYYWGQGTLVTVSS | high polyreactivity
HVQLVESGGGLVQAGGSLRLSCAASGSTFAGNAMGWYRQAPGKEWELVAAIDSSTGSTYYADSVKGRFTISRDNAKNTVNLQMNSLKPEDTAVYYCNKTSFLVKLDYWGQGTQVTVSS | low polyreactivity
HVQLVESGGGLVQAGGSLRLSCAASGSTIGRYAIGWYRQAPGEERELVAAISYSGGSTYYADSVKGRFTISRDNAKNTVYIQMNSLKPEDTAAYYCAKGLSTGRAYRGYDYWGQGTQVTVSS | high polyreactivity
HVQLVESGGGLVQAGGSLRLSCAASGSTLYSYAMGWYRQAPGKARELVAAISIGDSTNYADSVKGRFTISRDNAKNTVYLQMNSLKPEDTAVYYCNADRALGYYVVVFIFEYWGQGTQVTVSS | low polyreactivity
HVQLVESGGGLVQAGGSLRLSSTASGSTFGYYAMGWNRQAPGKERELVAAISGIGGSTYYADSVKGRFTISRDNAKNTVYLQMNSLKPEDTAVYFCAADLYYVTWDYNYWGQGTQVTVSS | low polyreactivity
